Data reported in US20150361184.

Target: T1, Flag-tagged kinase dead murine DLK S302A, not phosphorylated at T43, S272 and S533
T1 chain: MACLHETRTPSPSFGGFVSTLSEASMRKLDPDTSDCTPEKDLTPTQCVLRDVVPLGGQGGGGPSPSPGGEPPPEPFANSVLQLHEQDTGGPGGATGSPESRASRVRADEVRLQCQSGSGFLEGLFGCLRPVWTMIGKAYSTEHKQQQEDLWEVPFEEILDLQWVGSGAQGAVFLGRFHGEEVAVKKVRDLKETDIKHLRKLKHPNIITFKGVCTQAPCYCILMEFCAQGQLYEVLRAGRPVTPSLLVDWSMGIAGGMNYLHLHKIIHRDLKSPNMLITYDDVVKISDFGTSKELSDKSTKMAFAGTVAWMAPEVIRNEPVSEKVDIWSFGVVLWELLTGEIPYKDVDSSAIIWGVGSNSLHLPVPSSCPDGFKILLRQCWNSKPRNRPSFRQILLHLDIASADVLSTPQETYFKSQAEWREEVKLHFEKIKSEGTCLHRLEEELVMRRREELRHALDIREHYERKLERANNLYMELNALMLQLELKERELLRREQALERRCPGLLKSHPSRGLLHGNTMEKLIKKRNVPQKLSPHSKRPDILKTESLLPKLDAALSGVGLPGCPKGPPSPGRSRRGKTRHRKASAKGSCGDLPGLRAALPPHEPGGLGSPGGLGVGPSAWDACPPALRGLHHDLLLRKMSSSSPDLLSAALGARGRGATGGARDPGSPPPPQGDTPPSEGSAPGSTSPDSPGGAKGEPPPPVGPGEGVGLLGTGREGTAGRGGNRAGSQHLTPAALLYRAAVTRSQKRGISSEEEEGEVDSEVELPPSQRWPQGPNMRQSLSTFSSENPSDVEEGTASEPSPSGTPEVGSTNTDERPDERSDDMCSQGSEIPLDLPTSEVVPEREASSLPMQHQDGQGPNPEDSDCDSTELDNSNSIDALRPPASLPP

B1: GST-tagged human recombinant JNK3 (Millipore) (protein)
chain: MSLHFLYYCSEPTLDVKIAFCQGFDKQVDVSYIAKHYNMSKSKVDNQFYSVEVGDSTFTVLKRYQNLKPIGSGAQGIVCAAYDAVLDRNVAIKKLSRPFQNQTHAKRAYRELVLMKCVNHKNIISLLNVFTPQKTLEEFQDVYLVMELMDANLCQVIQMELDHERMSYLLYQMLCGIKHLHSAGIIHRDLKPSNIVVKSDCTLKILDFGLARTAGTSFMMTPYVVTRYYRAPEVILGMGYKENVDIWSVGCIMGEMVRHKILFPGRDYIDQWNKVIEQLGTPCPEFMKKLQPTVRNYVENRPKYAGLTFPKLFPDSLFPADSEHNKLKASQARDLLSKMLVIDPAKRISVDDALQHPYINVWYDPAEVEAPPPQIYDKQLDEREHTIEEWKELIYKEVMNSEEKTKNGVVKGQPSPSGAAVNSSESLPPSSSVNDISSMSTDQTLASDTDSSLEASAGPLGCCR
For B1, which “in vitro kinase assay; phosphorylation of T43 and S533 read by blotting with phospho-specific antibodies” value is on record?
The value was “both T43 and S533 can be phosphorylated directly by JNK”.
